Experimental data taken from paper PMC2174084.

Target: rabbit skeletal muscle actin, polymerized (F-actin) (rabbit) (UniProt P68135)
Assay: co-sedimentation

stoichiometry N (Kelch per actin (molar ratio)): 0.25
Substance: full-length Kelch (purified, recombinant; ORF1 cDNA) (natural protein)
